This passage reports Kd and IC50 results from the Immune Epitope Database (IEDB).

Assay [1] has as its target HLA-B*40:01. Description: IEDB peptide-MHC binding, purified MHC/competitive/radioactivity; filed as Kd, often an IC50 or EC50 that approximates it; ≥ and ≤ were set here for values at or beyond the usual limits of such assays.
Assay [2] has as its target HLA-B*44:03. Described as above.
Assay [3] concerns the target HLA-A*02:01. The assay can be described thus: IEDB peptide-MHC binding, purified MHC/competitive/fluorescence; ≥ and ≤ were set here for values at or beyond the usual limits of such assays.
The target of assay [4] is HLA-A*02:01. Description: IEDB peptide-MHC binding, purified MHC/competitive/fluorescence; filed as Kd, often an IC50 or EC50 that approximates it; ≥ and ≤ were set here for values at or beyond the usual limits of such assays.
The target of assay [5] is HLA-B*35:01. The assay can be described thus: IEDB peptide-MHC binding, purified MHC/competitive/radioactivity; filed as Kd, often an IC50 or EC50 that approximates it; ≥ and ≤ were set here for values at or beyond the usual limits of such assays.
Assay [6] deals with HLA-B*53:01. Described as above.
Assay [7] deals with HLA-A*01:01. The description is as above.
Assay [8] deals with HLA-A*68:02. Described as above.
The target in assay [9] is HLA-A*24:02. Described as above.
Assay [10] addresses HLA-B*51:01. The description is as above.
Assay [11] concerns the target HLA-B*44:02. The assay is described as above.
Assay [12] deals with HLA-A*03:01. Description: IEDB peptide-MHC binding, purified MHC/direct/fluorescence; filed as Kd, often an IC50 or EC50 that approximates it; ≥ and ≤ were set here for values at or beyond the usual limits of such assays. The note with it: source organism: Escherichia coli.
Assay [13] deals with HLA-A*31:01. The assay is described as above. To be noted: source organism: Escherichia coli.
Assay [14] concerns the target HLA-A*26:01. The assay can be described thus: IEDB peptide-MHC binding, purified MHC/competitive/radioactivity; filed as Kd, often an IC50 or EC50 that approximates it; ≥ and ≤ were set here for values at or beyond the usual limits of such assays.
The target in assay [15] is HLA-A*30:02. The description is as above.
The target of assay [16] is HLA-A*23:01. The assay is described as above. To be noted: source organism: Dengue virus 3 Martinique/1243/1999.
Assay [17] has as its target HLA-A*02:03. The assay is described as above. To be noted: source organism: Dengue virus 4 Philippines/H241/1956.
Assay [18] has as its target HLA-A*02:06. The description is as above. The note with it: source organism: Dengue virus 4 Philippines/H241/1956.
Where [19] appears, read: source organism: Dengue virus 1 Brazil/97-11/1997.
The mark [20] stands for this setting: source organism: Dengue virus 1 Singapore/S275/1990.
[21] abbreviates: source organism: Dengue virus 3 Martinique/1243/1999.
[22] abbreviates: source organism: Sudan ebolavirus.
The mark [23] stands for this setting: source organism: Dengue virus 2 Jamaica/1409/1983.
Setting [24] is: source organism: Dengue virus 4 Philippines/H241/1956.
Where [25] appears, read: source organism: Zaire ebolavirus.
Where [26] appears, read: source organism: Dengue virus 2 Peru/IQT2913/1996.

Turning to LEFFLMVLLI, the equilibrium dissociation constant (Kd) in assay [1] (setting [19]) was found to be 10.1 µM; in [2] (setting [19]), 9.09 µM.

On to LENDMKFTV, for which the equilibrium dissociation constant (Kd) in assay [1] (setting [20]) turned out to be 0.124 µM.

Regarding LETKGVERL, the dissociation constant Kd in assay [1] (setting [21]) was found to be 0.0217 µM.

The sequence LLCPAGHAV showed an IC50 in assay [3] (source organism: Hepacivirus hominis) of 35.4 µM. Also, in [4] (source organism: Hepatitis C virus subtype 1b), the Kd came to 0.0124 µM.

With LPEIEDEVF, the Kd in assay [5] (setting [19]) was determined as 0.0881 µM; in assay [6] (setting [19]) it was 1.24 µM.

On to LTDYGALTL, for which the Kd in [7] (setting [19]) turned out to be 0.201 µM.

LTMKNKAWMV: the Kd in [8] (setting [21]) worked out at 0.0167 µM.

LVCGLRQLA displayed an IC50 in [3] (setting [22]) of 7.66 µM.

On to LYSACFWWL, for which the Kd in assay [9] (source organism: Homo sapiens) is 0.028 µM.

With MAISGDDCVV, the Kd in assay [10] (setting [23]) came to 4.86 µM.

Regarding MAMVLSIVS, the equilibrium dissociation constant (Kd) in assay [5] (setting [20]) is 0.659 µM.

For MASVEPHWI, the equilibrium dissociation constant (Kd) in [10] (setting [19]) turned out to be 1.79 µM; in [6] (setting [19]), 1.4 µM.

Take MAYMIGQTGI: the dissociation constant Kd in [10] (setting [24]) turned out to be 0.0571 µM.

Regarding MESEGIFSP, the equilibrium dissociation constant (Kd) in assay [1] (setting [20]) amounted to 2.27 µM.

Consider MEVDRSEAK, for which the dissociation constant Kd in [11] (setting [19]) worked out at 7.94 µM.

As for MHNQDGLIC, the concentration for half-maximal inhibition (IC50) in assay [3] (setting [25]) was 2.34 µM.

The sequence MHNQNALVC came in with a half-maximal inhibitory concentration (IC50) in [3] (setting [22]) of at least 92 µM.

As to MLVTPSMTM, the equilibrium dissociation constant (Kd) in assay [5] (setting [21]) turned out to be 3.84 µM.

Turning to MNEENRFVT, in assay [3] (setting [25]), the IC50 was found to be 41.1 µM.

For MPKPSLFVR, the Kd was at least 20 µM in assay [12] and 0.204 µM in [13].

With MSYSMCTGKF, the Kd in assay [7] (setting [23]) was 18 µM; in [14] (setting [23]) it was 0.0794 µM; in [15] (setting [23]), 1.1 µM.

In the case of MWLGARYLEF, the Kd in assay [16] is 0.00354 µM; in assay [9] (setting [21]) it was 0.0977 µM.

NLEKKITNV displayed a dissociation constant (Kd) in assay [4] (source organism: Vaccinia virus WR 65-16) of 0.216 µM.

NYCEGTTVVI: the Kd in [16] worked out at 0.101 µM; in assay [9] (setting [21]), 0.0434 µM.

For QERGKSLLF, in assay [2] (setting [19]), the dissociation constant (Kd) is 0.117 µM.

QLVCKDHLA came in with an IC50 in assay [3] (setting [22]) of 19.6 µM.

Consider RNPAQEDDQY, for which, in assay [15] (setting [24]), the Kd stood at 15.9 µM.

In the case of RNPKNENDQY, in assay [15] (setting [23]), the Kd stood at 0.0207 µM.

With RTAGMIIMLI, in [8] (setting [26]), the Kd is 0.0616 µM.

Regarding RTTWALCESI, the Kd in [8] (setting [19]) came to 0.139 µM.

Turning to RWGLLLALL, the Kd in assay [9] (source organism: Homo sapiens) worked out at 0.0045 µM.

Consider SEAVNDSRFW, for which the dissociation constant (Kd) in assay [11] (setting [24]) was 0.0114 µM; in assay [2] (setting [24]), 0.0414 µM.

On to SEIQLTDYG, for which the equilibrium dissociation constant (Kd) in assay [2] (setting [19]) turned out to be 0.441 µM.

As for SEKNETWKL, the Kd worked out at 0.113 µM in assay [1] (setting [19]) and 0.153 µM in [11] (setting [19]).

In the case of STEGRRVGV, in assay [3] (setting [22]), the half-inhibitory concentration (IC50) was at least 210 µM.

Consider SVYTTMFGGV, for which the figures for the equilibrium dissociation constant (Kd) in assay [17], in assay [18] and in [8] (setting [24]) were 0.00823 µM, 0.00196 µM and 0.00963 µM, respectively.

TATLILAGV: in assay [8] (setting [21]), the Kd worked out at 0.00107 µM.

On to TLEDDRERL, for which the IC50 in assay [3] (source organism: Variola virus) stood at 29.9 µM.

On to TPEGIIPSM, for which the figures for the Kd in [5] (setting [23]) and in [6] (setting [23]) were 0.00757 µM and 0.252 µM, respectively.

On to TSMSFSCIAI, for which, in [8] (setting [21]), the dissociation constant Kd was found to be 0.00123 µM.

As for TTERGGKAY, the Kd in assay [7] (setting [24]) is 0.917 µM.

Turning to TTHTSGPSV, the IC50 in [3] (setting [22]) stood at 17.8 µM.

As to TVFFVLMMLV, the Kd in assay [8] (setting [24]) amounted to 0.0387 µM.

As for VESWEEIPYL, the dissociation constant Kd in assay [1] (setting [26]) worked out at 0.0528 µM.

In the case of VHQIFGSAY, the Kd in assay [15] (setting [21]) turned out to be 9.95 µM.

As to VLPFDIKKL, the equilibrium dissociation constant (Kd) in assay [4] (source organism: Vaccinia virus WR) was determined as 0.525 µM.

As to VPLLAIGCY, in [5] (setting [23]), the dissociation constant Kd was found to be 0.168 µM.

In turn, VRLHPLART yielded an IC50 in assay [3] (setting [25]) of at least 331 µM.

As for VTYLALIATF, the Kd in [7] (setting [21]) was at least 50.8 µM; in assay [14] (setting [21]), at least 21.2 µM.

On to YVILTILTII, for which the Kd in [18] was determined as 0.00238 µM; in assay [6] (setting [24]) it was 5.33 µM.
